Experimental findings from PMC7020083 are described below.

The test addresses hTNFR2-SCP3-Fc (human | ectromelia virus) (UniProt P20333). Kind of test: SPR; […], single-cycle; 1:1 Langmuir fit. A general note: SPR reads the build-up and loss of mass on a sensor chip optically.
Sequence of UniProt P20333 (P20333 23-257 limits assumed): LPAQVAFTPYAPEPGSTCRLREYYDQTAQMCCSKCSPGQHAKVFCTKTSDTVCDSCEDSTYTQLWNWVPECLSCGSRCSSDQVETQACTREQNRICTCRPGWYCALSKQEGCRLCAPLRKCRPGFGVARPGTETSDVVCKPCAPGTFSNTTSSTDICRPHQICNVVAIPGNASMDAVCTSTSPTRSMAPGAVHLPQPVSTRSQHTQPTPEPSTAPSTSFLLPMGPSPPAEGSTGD

A word on the Kd: it is the constant that tells how readily two partners part at equilibrium. What is called koff is the first-order rate constant of dissociation. The low end stands for a long-lived complex, the high end for a short-lived complex. As a reminder, the kon is the rate constant with which the complex forms. Read a low kon as slower complex formation. “human CXCL12 (from UniProt P48061 22-93) (ligand)” gave a Kd of 49.8 nM, a koff of 0.00825 s⁻¹ and a kon of 166000 M⁻¹ s⁻¹.

The molecule “human CCL25 (from UniProt O15444 24-150) (ligand)” gave a Kd of 6.75 nM, an off-rate constant (koff) of 0.00374 s⁻¹ and a kon of 554000 M⁻¹ s⁻¹.

B1: human CXCL13 (ligand)
chain: VLEVYYTSLRCRCVQESSVFIPRRFIDRIQILPRGNGCPRKEIIVWKKNKSIVCVDPQAEWIQRMMEVLRKRSSSTLPVPVFKRKIP
B1 registered a Kd of 21.4 nM, a koff of 0.00155 s⁻¹ and a kon of 72000 M⁻¹ s⁻¹.
